Results taken from article PMC12102759.

B1: PAIP1 peptide 126-141 (Polyadenylate-binding protein-interacting protein 1), 16-mer library wild type / PABPC1 PABC (PABPC1 PABC domain, residues 544-623) (parent)
chain 1: SKLSVNAPEFYPSGYS
chain 2: PLTASMLASAPPQEQKQMLGERLFPLIQAMHPTLAGKITGMLLEIDNSELLHMLESPESLRSKVDEAVAVLQAHQAKEAA

Variants of: B1
Assay: proteomic peptide phage display deep mutational scan (ProP-PD DMS): M13 P8 16-mer library selected against immobilised GST-tagged bait for four days (rounds), NGS of the eluted pools per day and pseudo-replica
Conditions: with PABPC1 PABC (PABPC1 PABC domain, residues 544-623); bait immobilised on MaxiSorp plates (10 µg), library pre-cleared on GST, 2 h binding at 4 °C, five washes; one round per day, days 1-4; value from days 2 and 3; keep out of graded; scale: average fractional NGS count over selection days 2 and 3

| Variant | screen value |
| --- | --- |
| chain 1 QKLSVNAPEFYPSGYS | 0.000406 |
| chain 1 LKLSVNAPEFYPSGYS | 0.00185 |
| chain 1 RKLSVNAPEFYPSGYS | 7.1e-05 |
| chain 1 MKLSVNAPEFYPSGYS | 0.0011 |
| chain 1 NKLSVNAPEFYPSGYS | 0.000154 |
| chain 1 WKLSVNAPEFYPSGYS | 0.000299 |
| chain 1 IKLSVNAPEFYPSGYS | 0.00076 |
| chain 1 VKLSVNAPEFYPSGYS | 0.000196 |
| chain 1 PKLSVNAPEFYPSGYS | 0.000196 |
| chain 1 HKLSVNAPEFYPSGYS | 0.000214 |
| chain 1 FKLSVNAPEFYPSGYS | 0 |
| chain 1 KKLSVNAPEFYPSGYS | 0.00037 |
| chain 1 AKLSVNAPEFYPSGYS | 0.0012 |
| chain 1 YKLSVNAPEFYPSGYS | 0.000342 |
| chain 1 SKLSVNAPEFYPSQYS | 9.29e-05 |
| chain 1 SKLSVNAPEFYPSMYS | 0.000578 |
| chain 1 SKLSVNAPEFYPSRYS | 0.000231 |
| chain 1 SKLSVNAPEFYPSSYS | 0.000279 |
| chain 1 SKLSVNAPEFYPSVYS | 0.000565 |
| chain 1 SKLSVNAPEFYPSYYS | 0.00125 |
| chain 1 SKLSVNAPEFYPSPYS | 0.00116 |
| chain 1 SKLSVNAPEFYPSKYS | 0.000153 |
| chain 1 SKLSVNAPEFYPSAYS | 0.00104 |
| chain 1 SKLSVNAPEFYPSIYS | 0.000195 |

| Variant | screen value |
| --- | --- |
| chain 1 SKLSVNAPEFYPSEYS | 0.000246 |
| chain 1 SKLSVNAPEFYPSTYS | 0.000205 |
| chain 1 SKLSVNAPEYYPSGYS | 0.00206 |
| chain 1 SKLSVNAPEDYPSGYS | 0 |
| chain 1 SKLSVNAPEQYPSGYS | 0 |
| chain 1 SKLSVNAPEVYPSGYS | 0 |
| chain 1 SKLSVNAPEWYPSGYS | 0.0171 |
| chain 1 SKLVVNAPEFYPSGYS | 9.02e-05 |
| chain 1 SKLFVNAPEFYPSGYS | 0.000754 |
| chain 1 SKLYVNAPEFYPSGYS | 0.000225 |
| chain 1 SKLDVNAPEFYPSGYS | 0 |
| chain 1 SKLQVNAPEFYPSGYS | 0.00694 |
| chain 1 SKLGVNAPEFYPSGYS | 0.000919 |
| chain 1 SKLTVNAPEFYPSGYS | 0.000487 |
| chain 1 SKLAVNAPEFYPSGYS | 0.00227 |
| chain 1 SKLEVNAPEFYPSGYS | 0.000106 |
| chain 1 SKLKVNAPEFYPSGYS | 0.000353 |
| chain 1 SKLPVNAPEFYPSGYS | 0.000535 |
| chain 1 SKLNVNAPEFYPSGYS | 8.32e-05 |
| chain 1 SKLLVNAPEFYPSGYS | 0.000589 |
| chain 1 SKLMVNAPEFYPSGYS | 8.55e-05 |
| chain 1 SKLRVNAPEFYPSGYS | 0.000365 |
| chain 1 SKLSVWAPEFYPSGYS | 0.000917 |
| chain 1 SKLSVIAPEFYPSGYS | 0.000614 |

| Variant | screen value |
| --- | --- |
| chain 1 SKLSVFAPEFYPSGYS | 0.000327 |
| chain 1 SKLSVVAPEFYPSGYS | 0.000215 |
| chain 1 SKLSVHAPEFYPSGYS | 0.000862 |
| chain 1 SKLSVRAPEFYPSGYS | 0.000467 |
| chain 1 SKLSVGAPEFYPSGYS | 0.000194 |
| chain 1 SKLSVAAPEFYPSGYS | 0.000611 |
| chain 1 SKLSVTAPEFYPSGYS | 0.000385 |
| chain 1 SKLSVEAPEFYPSGYS | 0 |
| chain 1 SKLSVYAPEFYPSGYS | 0.000705 |
| chain 1 SKLSVLAPEFYPSGYS | 0.00023 |
| chain 1 SKLSVPAPEFYPSGYS | 0 |
| chain 1 SKLSVMAPEFYPSGYS | 0.000149 |
| chain 1 SKLSVNAPEFYPDGYS | 0 |
| chain 1 SKLSVNAPFFYPSGYS | 0.00034 |
| chain 1 SKLSVNAPHFYPSGYS | 0.00439 |
| chain 1 SKLSVNAPYFYPSGYS | 0.000173 |
| chain 1 SKLSVNAPLFYPSGYS | 0.000721 |
| chain 1 SKLSVNAPKFYPSGYS | 0.000266 |
| chain 1 SKLSVNAPPFYPSGYS | 0.000543 |
| chain 1 SKLSVNAPMFYPSGYS | 0.00247 |
| chain 1 SKLSVNAPNFYPSGYS | 0.00191 |
| chain 1 SKLSVNAPVFYPSGYS | 0.000182 |
| chain 1 SKLSVNAPRFYPSGYS | 4.17e-05 |
| chain 1 SKLSVNAPQFYPSGYS | 0.000332 |

| Variant | screen value |
| --- | --- |
| chain 1 SKLSVNAPTFYPSGYS | 0.00117 |
| chain 1 SKLSVNAPIFYPSGYS | 8.24e-05 |
| chain 1 SKLSVNAPDFYPSGYS | 0.000746 |
| chain 1 SKLSVNAPSFYPSGYS | 0.00129 |
| chain 1 SKISVNAPEFYPSGYS | 0.00043 |
| chain 1 SKVSVNAPEFYPSGYS | 0.000373 |
| chain 1 SKPSVNAPEFYPSGYS | 9.03e-05 |
| chain 1 SKWSVNAPEFYPSGYS | 0.000852 |
| chain 1 SKFSVNAPEFYPSGYS | 0.000815 |
| chain 1 SKLSVNANEFYPSGYS | 0.0134 |
| chain 1 SKLSVNALEFYPSGYS | 0.000643 |
| chain 1 SKLSVNAWEFYPSGYS | 0.000763 |
| chain 1 SKLSVNAYEFYPSGYS | 0.0021 |
| chain 1 SKLSVNAKEFYPSGYS | 8.32e-05 |
| chain 1 SKLSVNADEFYPSGYS | 0.000406 |
| chain 1 SKLSVNASEFYPSGYS | 0.000241 |
| chain 1 SKLSVNAQEFYPSGYS | 0.000383 |
| chain 1 SKLSVNAGEFYPSGYS | 0.000696 |
| chain 1 SKLSVNAFEFYPSGYS | 0.000185 |
| chain 1 SKLSVNAAEFYPSGYS | 0.000105 |
| chain 1 SKLSVNAMEFYPSGYS | 0.00039 |
| chain 1 SKLSVNAREFYPSGYS | 0.000635 |
